In patent US12534533B2, “Anti-chemokine like receptor 1 humanized antibodies and their therapeutic applications” (OSE IMMUNOTHERAPEUTICS, priority 2019, dated 2026):
Residue numbers refer to the chain shown, from its start. In names and notes the source's numbering stands.

B1: HDLD: humanized 2G1 variant: combination of SEQ ID No. 43 and SEQ ID No. 53 (antibody, V domains shown)
VH: EVQLVESGGGLVQPGGSLRLSCAASGFTFSSYAMSWVRQAPGKGLELVATINRYGGSTYYAASVKGRFTISRDNSKNTLYLQMNSLRAEDTAVYYCPKLIYYGNEGDSWGQGTLVTVSS
VL: AIQLTQSPSSLSASVGDRVTITCRASQSVSFLHWYQQKPGKAPKRWIYDATKLTSGVPSRFSGSGSGTDFTLTISSLQPEDFATYYCQQWQSKPPLTFGGGTKVEIK
B2: HEF-LDT52S: humanized 2G1 variant optimized to reduce immunogenicity: HEF (SEQ ID NO: 91) with LD-T52S (SEQ ID No. 93) (antibody, V domains shown)
VH: B1 VH with A49S, N52S, R53G, Y54S
VL: B1 VL with T51S

Assays:
[1] = Stability assay (7 days at 4° C. or 37° C.; ELISA and gel filtration); type: physicochemical; settings: after 7 days at 37° C.; gel filtration; FIG. 34B
Experimental: FIG. 34—A. Binding of purified antibodies incubated 7 days at 4° C. or 37° C. on human ChemR23 ELISA assay. B. SEC profile by gel filtration chromatography of purified antibodies incubated 7 days at 37° C. Each purified humanized anti-ChemR23 antibody (HALA, HDLD, HD-LDT52S, HEF-LDT52S, HEF-LEF) were incubated for 7 days at 4° C. or 37° C. After 7 days, the binding of purified antibodies was analyzed by ELISA assay and the aggregate formation was analyzed by gel filtration (Superdex 200 10/300GL, GeHealthcare).
Each purified humanized anti-ChemR23 antibody (HALA, HDLD, HD-LDT52S, HEF-LDT52S, HEF-LEF) were incubated for 7 days at 4° C. or 37° C. After 7 days, the binding of purified antibodies was analyzed by ELISA assay and the aggregate formation was analyzed by gel filtration (Superdex 200 10/300GL, GeHealthcare).

[2] = molecular target: T1, Biot-C7 peptide (human ChemR23 peptide, SEQ ID No. 60) (Homo sapiens, UniProt Q99788); experiment: activity ELISA assay, binding of biotinylated C7 peptide; settings: compared to wild-type 2G1; FIG. 23, FIG. 33
T1 construct: purchased synpeptide; host or cells: chemical synthesis
T1 sequence (Q99788 275-307 limits assumed): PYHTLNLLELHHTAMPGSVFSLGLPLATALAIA
Excerpt: FIG. 23. Binding recognition of C7 peptide by humanized anti-CMKLR1 derived from 2G1. Binding of C7biot in the supernatant of CHO cells transfected with different combinations of heavy and light chains (VHWT+VLWT: combination of SEQ ID No. 37 and SEQ ID No. 49; HCLC: combination of SEQ ID No. 42 and SEQ ID No.52; HDLC: combination of SEQ ID No. 43 and SEQ ID No.52; HCLD: combination of SEQ ID No. 42 and SEQ ID No.53; HDLD: combination of SEQ ID No. 43 and SEQ ID No.53).
FIG. 24. ED50 of anti-CMKLR1 derived from 2G1 antibody. 2G1 wt: HALA: combination of SEQ ID No. 41 and SEQ ID No. 50; combination of SEQ ID No. 37 and SEQ ID No. 49; HCLC: combination of SEQ ID No. 42 and SEQ ID No.52; HDLC: combination of SEQ ID No. 43 and SEQ ID No.52; HCLD: combination of SEQ ID No. 42 and SEQ ID No.53; HDLD: combination of SEQ ID No. 43 and SEQ ID No.53.
FIG. 33—Binding of purified antibodies on human ChemR23 peptide by ELISA assay (A), with ED50 concentration (ng/ml) (B). For activity ELISA assay, donkey anti-human IgG, Fc specific (Jackson Immunoresearch; USA; reference 709-005-098) was immobilized on plastic at 1.3 μg/ml in borate buffer (pH9) and purified antibody was added to measure binding in BSA1% buffer, compared to wild-type 2G1.
For activity ELISA assay, donkey anti-human IgG, Fc specific (Jackson Immunoresearch; USA; reference 709-005-098) was immobilized on plastic at 1.3 μg/ml in borate buffer (pH9) and purified antibody were added to measure binding in BSA1% buffer, compared to wild-type 2G1.
For activity ELISA assay, donkey anti-human IgG, Fc specific (Jackson Immunoresearch; USA; reference 709-005-098) was immobilized on plastic at 1.3 μg/ml in borate buffer (pH9) and purified antibody was added to measure binding in BSA1% buffer, compared to wild-type 2G1.

[3] = tested on: PMN from healthy volunteers; experiment: Percentage of dead PMN (mortality of neutrophils) on coated antibodies; type: cell-based, human; settings: coated Ab at 10 μg/mL, 24 h; FIG. 26, FIG. 36
Experimental: […] Mortality of PMN was analyzed by incubating PMN with specific markers of the mortality and viability and then counted by picture analysis.
(§1) FIG. 36—Increase of dead PMN neutrophils in vitro with anti-ChemR23 antibodies coated. PMN from healthy volunteers were incubated in culture medium with coated HEF-LDT52S, HEF-LEF and HDLD antibody variants at 10 μg/mL for 24 h and stained either with a dead/viability kit (LIVE/DEAD (Invitrogen)). The percentages of positive cells were obtained by analyzing the pictures with Fiji software. Isotype control was added as control.
PMN from healthy volunteers were incubated in culture medium with coated Ab at 10 μg/mL for 24 h or 5 h and stained either with a dead/viability kit (LIVE/DEAD (Invitrogen)) or a specific marker of reactive oxygen species (ROS) respectively. The percentages of positive cells were obtained by analyzing the pictures with ImageJ software.
as §1, with “PMN” for “FIG. 36—Increase of dead PMN neutrophils in vitro with anti-ChemR23 antibodies coated. PMN”

[4] = tested on: CCR7 expression at the surface of pro-inflammatory macrophages M1; experiment: CCR7 expression on M1 macrophages with coated antibodies; type: cell-based, human; settings: antibody coated on plate, 48 h, flow cytometry; vs isotype control; FIG. 25, FIG. 35
Experimental: FIG. 25. Inhibition of CCR7 expression on M1 macrophages cells in vitro with anti-ChemR23 antibodies coated. 2G1 and all humanized 2G1 variants (HALA, HCLC, HCLD, HDLC and HDLD) were immobilized on plate. Isotype control were added as controls. Two isotypes which prevent FcRγ binding, i.e., 2G1-N297A (2G1 wt mutated in N297A to reduce FcγR binding), and 2G4 (wt with isotype IgG4mutated in S228P to stabilise hinge region) were also added. Pro-inflammatory macrophages M1 were added on coated plate for 48 h, and CCR7 expression at the surface of the macrophages was measured by flow cytometry.
FIG. 35—Inhibition of CCR7 expression on M1 macrophages cells in vitro with anti-ChemR23 antibody coated. The humanized 2G1 variant HEF-LD-T52S was immobilized on plate. Isotype control were added as controls. Pro-inflammatory macrophages M1 were added on coated plate, and CCR7 expression at the surface of the macrophages was measured by flow cytometry.
MATERIAL AND METHODS. […]
RESULTS. […] Pro-inflammatory macrophages M1 were added on coated plate for 48 h, and CCR7 expression at the surface of the macrophages was measured by flow cytometry.
The humanized 2G1 variant HEF-LD-T52S was immobilized on plate. […] Pro-inflammatory macrophages M1 were added on coated plate for 48 h, and CCR7 expression at the surface of the macrophages was measured by flow cytometry. […]

Molecule | percentage of aggregate [1] | binding activity to antigen-specific peptides (C7 peptide) [2] | mortality of PMN (percentage of dead PMN) [3] | expression of CCR7 at the surface of pro-inflammatory macrophages (M1) [4]
B1 | did not change | even better than the germline antibody HALA and the wild type antibody 2G1 | accelerate the death of PMN | –
B2 | did not change | high binding activity | accelerate the death of PMN | able to decrease expression of CCR7
